Source: IntAct's records for PubMed 24297912

B1: Basigin (Homo sapiens), P35613-2 (parent)
chain: MAAALFVLLGFALLGTHGASGAAGTVFTTVEDLGSKILLTCSLNDSATEVTGHRWLKGGVVLKEDALPGQKTEFKVDSDDQWGEYSCVFLPEPMGTANIQLHGPPRVKAVKSSEHINEGETAMLVCKSESVPPVTDWAWYKITDSEDKALMNGSESRFFVSSSQGRSELHIENLNMEADPGQYRCNGTSSKGSDQAIITLRVRSHLAALWPFLGIVAEVLVLVTIIFIYEKRRKPEDVLDDDDAGSAPLKSSGQHQNDKGKNVRQRNSS

Variants of: B1
Settings: with rh5_plaf7 RH5, Q8IFM5
rh5_plaf7 RH5, Q8IFM5, sequence (Q8IFM5 whole entry): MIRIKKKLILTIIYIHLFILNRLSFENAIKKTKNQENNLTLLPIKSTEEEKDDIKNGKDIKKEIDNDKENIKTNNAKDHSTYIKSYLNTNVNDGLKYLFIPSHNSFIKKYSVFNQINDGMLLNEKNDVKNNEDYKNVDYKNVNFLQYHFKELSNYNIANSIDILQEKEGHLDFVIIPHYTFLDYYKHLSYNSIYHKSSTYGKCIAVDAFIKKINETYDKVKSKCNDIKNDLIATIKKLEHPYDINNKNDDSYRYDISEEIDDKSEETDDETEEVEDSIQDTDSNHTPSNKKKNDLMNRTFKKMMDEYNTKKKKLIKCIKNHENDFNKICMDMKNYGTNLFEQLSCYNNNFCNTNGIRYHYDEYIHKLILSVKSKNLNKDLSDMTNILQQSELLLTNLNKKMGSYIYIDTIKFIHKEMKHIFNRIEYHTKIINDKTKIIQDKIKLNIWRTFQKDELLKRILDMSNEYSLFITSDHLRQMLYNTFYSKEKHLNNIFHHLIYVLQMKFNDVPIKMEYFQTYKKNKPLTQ

Variant | effect of a mutation on the interaction
MAAALFVLLGFALLGTHGASGAAGTVFTTVEDLGSKILLTCSLNDSATEVTGHRWLKGGVVLKEDALPGQKTEFKVDSDDQWGEYSCVFLPEPMGTANIKLHGPPRVKAVKSSEHINEGETAMLVCKSESVPPVTDWAWYKITDSEDKALMNGSESRFFVSSSQGRSELHIENLNMEADPGQYRCNGTSSKGSDQAIITLRVRSHLAALWPFLGIVAEVLVLVTIIFIYEKRRKPEDVLDDDDAGSAPLKSSGQHQNDKGKNVRQRNSS [Q100K] | decreasing interaction strength
MAAALFVLLGFALLGTHGASGAAGTVFTTVEDLGSKILLTCSLNDSATEVTGHRWLKGGVVLKEDALPGQKTEFEVDSDDQWGEYSCVFLPEPMGTANIQLHGPPRVKAVKSSEHINEGETAMLVCKSESVPPVTDWAWYKITDSEDKALMNGSESRFFVSSSQGRSELHIENLNMEADPGQYRCNGTSSKGSDQAIITLRVRSHLAALWPFLGIVAEVLVLVTIIFIYEKRRKPEDVLDDDDAGSAPLKSSGQHQNDKGKNVRQRNSS [K75E] | with no effect
MAAALFVLLGFALLGTHGASGAAGTVFTTVEELGSKILLTCSLNDSATEVTGHRWLKGGVVLKEDALPGQKTEFKVDSDDQWGEYSCVFLPEPMGTANIQLHGPPRVKAVKSSEHINEGETAMLVCKSESVPPVTDWAWYKITDSEDKALMNGSESRFFVSSSQGRSELHIENLNMEADPGQYRCNGTSSKGSDQAIITLRVRSHLAALWPFLGIVAEVLVLVTIIFIYEKRRKPEDVLDDDDAGSAPLKSSGQHQNDKGKNVRQRNSS [D32E] | with no effect
MAAALFVLLGFALLGTHGASGAAGTVLTTVEDLGSKILLTCSLNDSATEVTGHRWLKGGVVLKEDALPGQKTEFKVDSDDQWGEYSCVFLPEPMGTANIQLHGPPRVKAVKSSEHINEGETAMLVCKSESVPPVTDWAWYKITDSEDKALMNGSESRFFVSSSQGRSELHIENLNMEADPGQYRCNGTSSKGSDQAIITLRVRSHLAALWPFLGIVAEVLVLVTIIFIYEKRRKPEDVLDDDDAGSAPLKSSGQHQNDKGKNVRQRNSS [F27L] | decreasing interaction strength
